{"source": "paper PMC7380959", "about": "(Science Advances, 2020)", "binders": {"B1": {"name": "212.1.1 IgG (antibody, V domains shown)", "VH": "QVQLVQSGAEVKKPGSSVKVSCKASGGTLSSYGISWVRQAPGQGLEWLGGSIPILGTSVYAQKFQGRVTMTADESTSTAHMELSSLRFDDTAIYYCAGVREGMAAISGKNAFDIWGQGTMVTVSS", "VL": "DIQMTQSPSSLSASVGDRVTITCRASQGISNYLAWYQQKPGKVPKLLIYAASTLQSGVPSRFSGSGYGTEFTLTISSLQPEDVATYYCQQHDNLPLTFGGGTKVEIK"}}, "molecular_target": "H77 E1E2 (full-length E1E2, wild type) (Hepatitis C virus genotype 1a, isolate …)", "test": "ELISA", "data": [{"binder": "B1", "values": [{"measurement": "binding result", "value": "binds"}]}]}
